Columns and labels:
[1] = target: cysteine desulfurase NFS1 (subunit of the (NIA)2 subcomplex) (human)
[2] = target: cysteine desulfurase NFS1 (subunit of the (NIA)2 subcomplex) (human); remark: listed apart in the source
[3] = target: iron-sulfur scaffold protein ISCU2, iron-loaded (human) (UniProt Q9H1K1)
Chain of UniProt Q9H1K1 (Q9H1K1 35-167): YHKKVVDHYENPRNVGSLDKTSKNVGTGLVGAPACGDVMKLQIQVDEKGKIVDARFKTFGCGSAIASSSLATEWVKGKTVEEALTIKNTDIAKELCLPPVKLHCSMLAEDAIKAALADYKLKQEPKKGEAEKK

Row | Substance | initial rate of [2Fe-2S] cluster synthesis (CD) at 5 µM FDX2 variant, against wild-type FDX2 [2] [fold higher] | further results
1 | FDX2-DA variant (Asp137-Asp138 exchanged to Ala) (from UniProt Q6P4F2 66-183) (natural protein) |  | initial rate of [2Fe-2S] cluster synthesis on ISCU2 (CD), dithionite-reduced ferredoxin, against dithionite-reduced wild-type FDX2 [1]: 4 fold slower
2 | FDX2 truncation variant lacking 5 C-terminal residues (ΔC5) (from UniProt Q6P4F2 53-181) (domain or fragment) | < 4 | 
3 | FDX2-CL variant (cluster-binding loop residues 109EASL112 replaced with GGSC) (from UniProt Q6P4F2 66-183) (natural protein) |  | initial rates of [2Fe-2S] cluster synthesis (CD) against the concentration of the FDX2 variant, maximum at 1.5 µM, against wild-type FDX2 [3]: 2 fold slower
4 | FDX2 truncation variant lacking 10 C-terminal residues (ΔC10) (from UniProt Q6P4F2 53-176) (domain or fragment) | < 4 | 

From paper PMC11618653
